± gives the uncertainty stated by the source.
B1: Zinc finger protein ZIC 2, residues 250 to 295; numbered along this chain, O95409 (parent)
chain: QCIKQELICKWIDPEQLSNPKKSCNKTFSTMHELVTHVSVEHVGGP

Variants of: B1
Test: abundance fitness (aPCA) (normalised: wild type 0, dead -1); higher = more abundant; growth selection in yeast, the domain comes from the species named
Settings: Homo sapiens

Abundance fitness of substitutions, site by site:
H42: E -1.07 ± 0.13, Q -0.909 ± 0.13, A -0.689 ± 0.096, T -0.89 ± 0.11, I -0.862 ± 0.12, G -0.661 ± 0.091, N -1.25 ± 0.16, M -0.642 ± 0.12, Y -0.971 ± 0.12, F -1.04 ± 0.13, L -0.975 ± 0.098, C -1.16 ± 0.14, D -1.01 ± 0.12, W -0.707 ± 0.12, S -0.854 ± 0.095, P -1.13 ± 0.14
H32: D 0.092 ± 0.098, Y -0.573 ± 0.12, M -0.263 ± 0.095, I -0.211 ± 0.12, G -0.044 ± 0.086, R 0.084 ± 0.086, E 0.082 ± 0.096, W 0.163 ± 0.094, A 0.14 ± 0.086, N 0.275 ± 0.11, K -0.011 ± 0.11, S 0.011 ± 0.089, T 0.037 ± 0.091, L -0.471 ± 0.089, F 0.012 ± 0.11, V -0.196 ± 0.087, P 0.171 ± 0.091, C -0.172 ± 0.1
S29: K 0.03 ± 0.11, N -0.213 ± 0.13, H 0.077 ± 0.12, M -0.077 ± 0.11, R 0.236 ± 0.084, F -0.215 ± 0.1, P 0.209 ± 0.1, Q 0.114 ± 0.11, L 0.07 ± 0.092, C -0.337 ± 0.094, E 0.425 ± 0.096, G 0.03 ± 0.084, A -0.086 ± 0.093, T 0.551 ± 0.11, W -0.386 ± 0.095, V -0.167 ± 0.091, I -0.356 ± 0.14, D 0.352 ± 0.1
F28: Q -0.705 ± 0.12, C -0.725 ± 0.11, T -0.631 ± 0.1, A -0.811 ± 0.1, Y -0.724 ± 0.13, G -0.598 ± 0.089, W -0.968 ± 0.1, D -0.914 ± 0.15, H -1.04 ± 0.15, R -0.84 ± 0.09, M -0.683 ± 0.11, K -0.471 ± 0.11, E -0.547 ± 0.1, S -0.887 ± 0.097, L -0.668 ± 0.092, V -0.724 ± 0.1
G44: M -0.372 ± 0.1, K -0.142 ± 0.12, W -0.082 ± 0.098, A -0.006 ± 0.087, F -0.384 ± 0.1, N -0.019 ± 0.11, P -0.217 ± 0.1, C -0.062 ± 0.096, V -0.273 ± 0.088, E -0.2 ± 0.099, H -0.292 ± 0.11, R 0.057 ± 0.086, I -0.363 ± 0.11, T -0.045 ± 0.091, Q -0.267 ± 0.13, L -0.641 ± 0.097
S39: N -0.007 ± 0.11, W -0.292 ± 0.097, R 0.056 ± 0.087, T -0.065 ± 0.093, F -0.663 ± 0.11, L -0.356 ± 0.091, P -0.666 ± 0.12, A 0.129 ± 0.088, M -0.274 ± 0.11, D 0.414 ± 0.1, Q 0.296 ± 0.1, Y -0.873 ± 0.14, C -0.016 ± 0.11, E 0.334 ± 0.092, H -0.241 ± 0.13, I -0.681 ± 0.14, V -0.357 ± 0.091, G -0.019 ± 0.086
V35: N 0.761 ± 0.1, P -0.848 ± 0.11, T 0.302 ± 0.095, Y 0.296 ± 0.1, W 0.2 ± 0.089, F 0.054 ± 0.11, R 0.193 ± 0.084, Q 0.543 ± 0.099, I 0.03 ± 0.099, G 0.118 ± 0.083, M 0.245 ± 0.097, E 0.529 ± 0.091, A -0.04 ± 0.088, K 0.446 ± 0.097, S 0.5 ± 0.086
V40: L -0.363 ± 0.096, M 0.082 ± 0.099, Y -0.275 ± 0.12, K -0.122 ± 0.1, I -0.01 ± 0.11, C -0.457 ± 0.11, E 0.062 ± 0.092, N 0.075 ± 0.11, H -0.136 ± 0.13, R -0.134 ± 0.086, G 0.05 ± 0.084, F -0.549 ± 0.11, W -0.581 ± 0.1, T -0.073 ± 0.1, A -0.03 ± 0.089, S 0.001 ± 0.088
T36: S 0.018 ± 0.086, M -0.341 ± 0.1, C -0.236 ± 0.099, V -0.38 ± 0.088, G -0.032 ± 0.086, W -0.081 ± 0.097, Q 0.055 ± 0.1, N -0.232 ± 0.12, E -0.025 ± 0.097, H -0.283 ± 0.12, Y -0.25 ± 0.11, A -0.178 ± 0.091, F -0.483 ± 0.11, D -0.068 ± 0.1, K 0.141 ± 0.095, L -0.453 ± 0.089
T30: I -0.315 ± 0.16, M -0.765 ± 0.15, H -0.596 ± 0.14, N 0.317 ± 0.12, L -0.802 ± 0.11, A 0.122 ± 0.096, R -0.418 ± 0.094, P -0.923 ± 0.13, D -0.072 ± 0.12, F -0.254 ± 0.14, Q -0.159 ± 0.11, Y -0.96 ± 0.18, S -0.273 ± 0.096, K -0.389 ± 0.13, W -0.661 ± 0.12, E -0.316 ± 0.12, C -0.999 ± 0.16, G -0.178 ± 0.092
